Laboratory results as given in patent US20150133651, “CslA9 Gluco-mannan Synthase Gene” (published 2015).

Key:
MYB83 (At3g08500) = MYB83 (At3g08500) (Arabidopsis thaliana, UniProt Q9C6U1 Q9C6U1:1-343); assay: EMSA; 10 mM Tris pH 7.5, 50 mM KCl, 5 mM MgCl2, poly(dI-dC); conditions: tags: GST fusion, E. coli Rosetta gami; label: 32P
Experimental: (§1) DNA fragments for EMSA were obtained by PCR-amplification and labeled with [γ-³²P]ATP using T4 polynucleotide kinase (NEB). The end-labeled probes were purified with Microspin S-200 HR column (GE Healthcare). The labeled DNA fragments were incubated for 25 min with 50 ng of GST-MYB46, GST-MYB83, GST-bZIP1 and GSTANAC041 in a binding buffer [10 mM Tris (pH 7.5), 50 mM KCl, 1 mM DTT, 2.5% glycerol, 5 mM MgCl₂, 100 μg/ml BSA, and 50 ng/μL poly(dI-dC)]. Five percent polyacrylamide gel electrophoresis (PAGE) was used to separate the recombinant protein-bound DNA fragments from the unbound ones. The gel was dried and placed in a film cassette and exposed to X-ray film (Kodak) for overnight. Radioactive fragments were visualized by autoradiography.

MYB46 = MYB46 (Arabidopsis thaliana, UniProt Q9LXV2 SEQ:1-280); assay: EMSA; 10 mM Tris pH 7.5, 50 mM KCl, 5 mM MgCl2, poly(dI-dC); competed by 50x unlabeled probe; conditions: tags: GST fusion, E. coli Rosetta gami; label: 32P
Chain of MYB46 (Q9LXV2 whole entry, the tested form may be a part): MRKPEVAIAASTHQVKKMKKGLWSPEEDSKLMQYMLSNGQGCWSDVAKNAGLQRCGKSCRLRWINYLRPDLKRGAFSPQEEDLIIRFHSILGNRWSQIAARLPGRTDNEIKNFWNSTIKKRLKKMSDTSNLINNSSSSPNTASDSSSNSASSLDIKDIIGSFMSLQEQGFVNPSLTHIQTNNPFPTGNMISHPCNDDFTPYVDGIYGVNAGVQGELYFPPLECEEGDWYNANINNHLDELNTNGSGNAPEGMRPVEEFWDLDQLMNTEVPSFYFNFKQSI
Experimental: as §1
To evaluate whether MYB46 could directly bind to the CSLA9 promoter sequence, electrophoretic mobility shift assays (EMSAs) were performed with the GST-MYB46 fusion protein as described in Example 1.

Chain of MYB83 (At3g08500) (Q9C6U1 whole entry, the tested form may be a part, one chain of several): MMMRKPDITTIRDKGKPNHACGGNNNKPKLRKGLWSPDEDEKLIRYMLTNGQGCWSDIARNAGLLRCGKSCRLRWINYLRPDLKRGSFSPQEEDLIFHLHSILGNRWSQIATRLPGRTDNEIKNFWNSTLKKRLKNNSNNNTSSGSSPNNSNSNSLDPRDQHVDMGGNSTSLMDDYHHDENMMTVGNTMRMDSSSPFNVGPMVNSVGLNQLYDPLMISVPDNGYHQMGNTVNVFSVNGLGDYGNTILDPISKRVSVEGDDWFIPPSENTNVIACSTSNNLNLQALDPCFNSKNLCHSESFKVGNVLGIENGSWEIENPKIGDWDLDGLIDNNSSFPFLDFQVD

B1: CSLA9 promoter -705 to -556 (dsDNA)
DNA 1: CTTAAAATAACAATTTGTTTTGTATCTTCGCCTGGACGTCATTAATGTTTGTGTCGTTCAATAATGTTTGGTAGTTATATATAGAAAGAGCAAATTTATGGTTGATTGATGGTGCAAAAAAATTCATTTCTCTATATTCTAGAGAAATAA
DNA 2: TTATTTCTCTAGAATATAGAGAAATGAATTTTTTTGCACCATCAATCAACCATAAATTTGCTCTTTCTATATATAACTACCAAACATTATTGAACGACACAAACATTAATGACGTCCAGGCGAAGATACAAAACAAATTGTTATTTTAAG
binding result (MYB83 (At3g08500)): binds | binding result (MYB46): binds
